Test results: paper PMC8299219 (Cell, 2021)
Substitutions are numbered along the chain they refer to.

B1: C102A4 (antibody, V domains shown)
VH: QVQLVQSGAEVKKPGSSVKVSCKASGGTFSSYAISWVRQAPGQGLEWMGGIIPIFGTANYAQKFQGRVTITADESTSTAYMELSSLRSEDTAVYYCATQPSYGDLDLFDYWGQGTLVTVSS
VL: not shown
B2: G32Q4 (antibody, V domains shown)
VH: QVQLVESGGGVVQPGRSLRLSCAASGFTFSRYAMQWVRQAPGKGLEWVAVISYDGNNRYYADSVKGRFTISRDNSKNTLYLQMNSLRAEDTAVYYCARGPPGYYDSSGYYQTPEYFQHWGQGTLVTVSS
VL: QSVLTQPPSVSGAPGQRVTISCTGSSSNIGVGYDVHWYQQFPGTVPKLLIYGNSNRPSGVPDRFSGSKSGTSASLAITGLQAEDEADYYCQSYDSSLSGVVFGGGTKLTVL
B3: C12D5 (antibody, V domains shown)
VH: QVQLVESGGGVVQPGRSLRLSCAASGFTFSSYVMHWVRQAPGKGLEWVAVISYDGSNKYYADSVKGRFTISRDNSKNTLYLQMNSLRAEDTAVYYCARDPGARRDGYVSLGGSYDWFDPWGQGTLVTVSS
VL: B2 VL with S25T, V31A, F41L, V45A, V100W
B4: C53E1 (antibody, V domains shown)
VH: EVQLVQSGAEVKKPGESLKISCKGSGYSFTSYWIGWVRQMPGKGLEWMGIIYPGDSDTTYSPSFQGQVTISADKSISTAYLQWSSLKASDTAMYYCARRSNSPFPLIDYWGQGTLVTVSS
VL: not shown
B5: C53F11 (antibody, V domains shown)
VH: QVQLQESGPGLVKPSETLSLTCTVSGYSISSGYYWGWIRQPPGKGLEWIGSIYHSESTYYNPSLKSRVTISVDTSKSQFSLKLSSVTAADTAVYYCGRSLWDSIWEDHIGAVDYWGQGTLVTVSS
VL: QSALTQPASVSGSPGQSITISCTGTSSDVGNYNLVSWYQQHPGKAPKLMIYEGSKRPSGVSNRFSGSKSGNTASLTISGLQAEDEADYYCCSYAGSSILWVFGGGTKLTVL
B6: G32B1 (antibody, V domains shown)
VH: QVQLVESGGGVVQPGRSLRLSCAASGFTFSSYGMHWVRQAPGKGLEWVAVISYDGSNKYYADSVKGRFTISRDNSKNTLYLQMNSLRAEDTAVYYCAKVVAPYYYYYYGMDVWGQGTTVTVSS
VL: B5 VL with N31G, L34Y, G53V, K55N, C91S, A94T, G95S, I98T, L99S
B7: C12C10 (antibody, V domains shown)
VH: not shown
VL: B5 VL with N31G, L34Y, E52D, G53V, K55Y, C91S, A94T, G95S, W100G
B8: G32Q3 (antibody, V domains shown)
VH: QVQLVQSGTEVKKPGASVKVSCKASGYTFPNYGITWVRQAPGQGLEWVGWISAYNGNTNYAQKLQGRVTMTTDTSTNTAYMELRSLRSDDTAVYYCARSIAVAGTTAEFDYWGQGTLVTVSS
VL: not shown
B9: C89A10 (antibody, V domains shown)
VH: EVQLLESGGGLVQPGGSLRLSCAASGFIFSSYAMSWVRQAPGKGLEWVSVISGSGDITYYADSVKGRFTISRDNSKNTLYLQMNSLRAEDTAVYYCAKDIDEPTAMVESWGYWGQGTLVTVSS
VL: QSALTQPRSVSGSPGQSVTISCTGTSSDVGGYNYVSWYQQHPGKAPKLMIYDVSKRPSGVPDRFSGSKSGNTASLTISGLQAEDEADYYCCSYAGSWVFGGGTKLTVL
B10: C12E7 (antibody, V domains shown)
VH: QVQLVESGGGVVQPGRSLRLSCAASGFTFSSYGMHWVRQAPGKGLEWVAVISYDGSNKYYADSVKGRFTISRDNSKNTLYLQMNSLRAEDTAVYYCAKSGYSYAYPMVYFDYWGQGTLVTVSS
VL: SYELTQPPSVSVAPGKTARITCGGNNIGSKSVHWYQQKPGQAPVLVVYDDSDRPSGIPERFSGSNSGNTATLTISRVEAGDEADYYCQVWDSSSDHPGVFGGGTKLTVL
B11: C93D1 (antibody, V domains shown)
VH: B10 VH with S31N, S99G, G100S, S102F, Y103H, A104S, Y105N, P106Y, M107W, V108D
VL: not shown
B12: C63C8 (antibody, V domains shown)
VH: EVQLVESGGGLVQPGGSLRLSCAASGFTFSSYWMSWVRQAPGKGLEWVANIKQDGSEKYYVDSVKGRFTMSRDNAKNSLYLQMNSLRAEDTAVYYCASLRWLQADFEYWGQGTLVTVSS
VL: NFMLTQPHSVSESPGKTVTISCTRSSGSIASNYVQWYQQRPGSSPTTVIYEDNQRPSGVPDRFSGSIDSSSNSASLTISGLKTEDEADYYCQSYDSTNHVFGTGTKVTVL
B13: C53F10 (antibody, V domains shown)
VH: EVQLVQSGAEVKKPGESLRISCKGAGYSFTSYWITWVRQMPGKGLEWMGRIDPSDSYTNYSPSFEGHVTISADKSISTAYLQWSSLKASDTAMYYCARLYCGGDCPPGYWGQGTLVTVSS
VL: not shown
B14: C18C10 (antibody, V domains shown)
VH: EVQLVESGGGLVQPGGSLRLSCAASGFTFSNYAISWVRQAPGKGLEWVSLISGSGGSTYYADSVKGRFTISRDNSKNTLYLQMNSLRAEDTAVYYCATTNIPPFSGYYLDAFDIWGQGTMVTVSS
VL: not shown
B15: C63C7 (antibody, V domains shown)
VH: not shown
VL: QSVLTQPPSVSGAPGQRATISCTGSSSNIGAGYDVHWYQQLPGTSPKLLIYGNSNRPSGVPDRFSGSKSGTSASLAITGLQAEDEAEYYCQSYDSSLSGSVVFGGGTKLTVL
B16: C18C11 (antibody, V domains shown)
VH: EVQLVESGGGVVQPGRSLRLSCAASGFTFSSYAMHWVRQAPGKGLEWVAVISYDGSNKYYADSVKGRFTISRDNSKNTLYLQMNSLRAEDTAVYYCASLITMVRGVFDYWGQGTLVTVSS
VL: not shown
B17: G32B6 (antibody, V domains shown)
VH: QVQLVQSGAEVKKPGASVKVSCKASGYTFTGYYMYWVRQAPGQGLEWMGWINPNSGGTNYAQKFQGRVTMTRDRSISTAYMELSRLRSDDTAMYYCARDRVGDILTGYYGYWGQGTLVTVSS
VL: QSALTQPPSASGSPGQSVTISCTGTSSDVDSYNYVSWYQQHPGKAPKLMIYEVSKRPSGVPDRFSGSKSGNTASLTVSGLQAEDEADYYCSSYAGSNNWVFGGGTKLTVL
B18: G32A8 (antibody, V domains shown)
VH: QVQLVQSGAEVKKPGASVKVSCKASGYTFTGYYMHWVRQAPGQGLEWMGWINPNSGATNYAQKFQGRVTMTRDTSINTAYMELNRLRSDDTAVYYCARDIVFSRLGASFDYWGQGTLVTVSS
VL: B17 VL with D30G, S31G, S54T, N98Y, W99N
B19: C41P1 (antibody, V domains shown)
VH: QVQLVESGGGVVQPGRSLRLSCAASGFTFSSYAMHWVRQAPGKGLEWVAVISYDGRNKYYADSVKGRFTISRENSKNTLYLQMNSLRAEDTAVYYCARDLGVVVPAAIGWVNPRDDYYYYYGMDVWGQGTTVTVSS
VL: SYELTQPPSVSVSPGQTARITCSGDALPKQYAYWYQQKPGQAPVLVIYKDSERPSGIPERFSGSSSGTTVTLTISGVQAEDEADYYCQSADSSGTYRVFGTGTKVTVL
B20: C53F9 (antibody, V domains shown)
VH: QVQLVQSGAEVKKPGASVKVSCKASGYTFTSYGISWVRQAPGQGLEWMGWISAYNGNTNYAQKLQGRVTMTTDTSTSTAYMELRSLRSDDTAVYYCARVGTYYYDSSAYYFDYWGQGTLVTVSS
VL: not shown
B21: C98C7 (antibody, V domains shown)
VH: EVQLVESGGGLVQPGGSLRLSCAASGITVSSNYMSWVRQAPGKGLEWVSVIYSGGSTFYADSVKGRFTISRDNSKNTLYLQMSSLRAEDTAVYYCARDLVVFGMDVWGQGTTVTVSS
VL: EIVLTQSPGTLSLSPGETATLSCRASQSVGSSYLTWYQQKPGQAPRLLIYGASSRATGIPDRFSGSGSGTDFTLTISRLEPEDFAVYYCQHYGSSPTFGQGTKVEIK
B22: C30C2 (antibody, V domains shown)
VH: EVQLVESGGGLVQPGGSLRLSCAASGFTVSSNYMSWVRQAPGKGLEWVSVIYSGGSTYYADSVKGRFTISRDNSKNTLYLQVNSLRAEDTAVYYCARDGRDNAFDIWGQGTMVTVSS
VL: not shown
B23: C15D10 (antibody, V domains shown)
VH: QVQLQQSGPGLVKPSQTLSLTCAISGDSVSSNSAAWNWIRQSPSRGLEWLGRTYYRSKWYNDYAVSVKSRITINPDTSKNQFSLQLNSVTPEDTAVYYCAREQQLVSHDYYYYYGMDVWGQGTTVTVSS
VL: QSALTQPASVSGSPGQSITISCTGTSSDVGGYNYVSWYQQHPGKAPKLMIYDVSNRPSGVSNRFSGSKSGNTASLTISGLQAEDEADYYCSSYTSSSSLFGTGTKVTVL
B24: C15D4 (antibody, V domains shown)
VH: QVQLQQWGAGLLKPSETLSRTCAVYGGSFSGYYWTWIRQPPGMALEWIGDINHGGVTNYNPSLKSRVTISVDTSKNQFSLRLTSVTAADTAVYYCARRLLGDPRPASSSLSLRRVSYMDVWDKGTTVTVSS
VL: DIQMTQSPSSMSASVGDRVTITCRASQSISNYLNWYQQKPGRAPKLLIYGASSLQSGVPSRFGGSGSGTEFTLTITALQPEDSATYYCQQIHGAPPITFGQGTRLEIK
B25: C63D3 (antibody, V domains shown)
VH: EVQLVESGGGLVQPGGSLRLSCAASGFTFSSYDMHWVRQATGKGLEWVSVIGTAGDTYYPGSVKGRFTISRENAKNSLYLQMNSLRAGDTAVYYCARGHSTGQGYSYYYYMDVWGKGTTVTVSS
VL: not shown
B26: G32C4 (antibody, V domains shown)
VH: EVQLVQSGAEVKKPGESLKISCKGSGYSFISYWIGWVRQMPGKGLEWMGIIYPGDSDTRYSPSFQGQVTISADKSISTAYLQWSSLKASDTAMYYCARMTQGYGTIRPLYYFDYWGQGTLVTVSS
VL: not shown

Molecular target: SARS-CoV-2 S ectodomain trimer, prefusion-stabilized, 2P variant (Wrapp et al., 2020) (SARS-CoV-2, Wuhan-Hu-1, UniProt P0DTC2, stabilised)

| Binder | binding result |
| --- | --- |
| B1 | binds |
| B2 | binds |
| B3 | binds |
| B4 | binds |
| B5 | binds |
| B6 | binds |
| B7 | binds |
| B8 | binds |
| B9 | binds |
| B10 | binds |
| B11 | binds |
| B12 | binds |
| B13 | binds |
| B14 | binds |
| B15 | binds |
| B16 | binds |
| B17 | binds |
| B18 | binds |
| B19 | binds |
| B20 | binds |
| B21 | binds |
| B22 | binds |
| B23 | binds |
| B24 | binds |
| B25 | binds |
| B26 | binds |
